Test: yeast display, Sf9 membrane polyspecificity reagent, FACS + sequencing; frameworks hold sequencing errors
In short: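 Sorting gates, low and high (top ~1%), were placed on anti-HA fluorescence to track expression and on streptavidin fluorescence to track reagent binding. A clone's polyreactivity label is taken from the gate it came out of. The reagent was 10% biotinylated, detergent-solubilized Sf9 membrane, applied for 1 hour at 4 °C to galactose-induced yeast display cells.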

| Sequence | polyreactivity (PSR sort gate) |
| --- | --- |
| QVQLVESGGGLDQAGGSLRLSCAASGFIFGPNAMGWYRQAPGKERELVAAISWIGSSTYYADSVKGRFTISRDNAKNTVYIKMNSLTPEDTPVYYCAADSSERRLLDFDYWGQGTQVTVSS | low polyreactivity |
| QVQLVESGGGLVQAGGSLRLSCAASGLIFWHYAMGWYRQAPGKERELVAAISRRGGSTYYADSVKGRFTISRDNAKNTVYLQMNSLKPEDTAVYYCAADVWGSSAQRGWRKDYYWGQGTQVTVSS | high polyreactivity |
| QVQLVESGGGLVQAGGSLRLSCAASGFIFAAYAKGWYRQAPGKERELVAAISGSGGRTYYADSVKGRFTISRDNAKYTVYLQMNSLKPEDTAVYYCGTPPGYPPGSIIWSRFGFWGQGTQVTVSS | high polyreactivity |
| QVQLVESGGGLVQAGGSLRLSCAASGITFTSYAMGWYRQAPGKERELVAAISWSGDRTYYADSVKGRFTISRDNAKNTVYLQMNSLKPEDTAVYYCAAEWVSPWTGPGFDYWGQGTQVTVSS | high polyreactivity |
| QVQLVESGGGLVQAGGSLRLSCAASGRIFLTNAMGWYRQAPGKERELVAAITSGGSTYYADSVKGRFTISRDNAKNTVYLQMNSLKPEDTAVYYCNADTDRYWPYEYDYWGQGSQVTVSS | low polyreactivity |
| QVQLVESGGGLVQAGGSLRLSCAASGRTFDGYAMGWYSQAPGKERELVAALSSRSGRTYYADSVKGRFTISRDNAKNTVYLQMNSLKPEDTAGYYCAAVNKPRSEDYGYWGQGTQVTVSS | high polyreactivity |
| QVQLVESGGGLVQAGGSLRLSCAASGFTFIQYDMGWYRLAPGKERELVAAISSSGGSTYYADSVKGRFTISRDNAKNTVYLQMNSLKPEDTAVYNCAADPWVRLEYDYWGQGTQVTVSS | low polyreactivity |
| QVQLVESGGGLVQAGGSLRLSCAASGFTFYWNTMGWYRPAPGKERELVAAISWSGGDTDYADSVKGRFTISRDNAKNTVYLQMNSLKPEDTAVYYCNSIYVSDRSSAVSFDYWGQGTQVNVSS | low polyreactivity |
| QVQLVESGGGLVQAGGSLRLSCAASGSIFSFNAMGWYRQAPGKERELVAVITQRGGSTYYADSVKGRFTISRDNAKNTVYLQMNSLKPEDTAVYYCAARTPRGYYYWGQGTQVTVSS | high polyreactivity |
| QVQHVESGGCLVQAGGSLRLSCASSGSIFDRNAMGWYRQAPGKERELVAAISSRGGSTYYADSVKGRFTISRDNAKNTVYLQMNSLKPEDTAVYYSAKRRDLYGGYRPYYYWGQGTQVTVSS | high polyreactivity |
| QVHLVESGGGLVQAGGSLRLSCAASGSIFGPYAMGWYRQAPGKERELVAAITYRGDSTYYADSVKGRFTISRDYAKNTVYLQINSLKPEDTAVYYCAADYFYANYDYWGQGTQVTVSS | high polyreactivity |
| QVQLVESGGVLVQAGGSLRLSCAASGRTVTVNAMGWYRQAPGKERELVAAITGRGGNTNYADSLKGRFTISRDNAKNTVYLQMNSQKPEDTAVFYCYARYHGRAKHDYWGQGTQVTVSS | high polyreactivity |
| QVQLVESGGGLVQAGGSLRLSCAASGIISYLYAMGWYRQAPGKERELVAVIRTSDAITYYADSVKGRFTISRDNAKNTVYLQMISLKPEDTAVYYCAAEDVYEYDYWGQGTQVTVSS | high polyreactivity |
| QVQLVESGGGLVQAGGSLRLSCAASGRTFWYYAMGWYRQAPGKEREFVAAISWSGGSTYYADSVKGRFTISRDNAKNTVYLQMNSLKPEDTAVYYCAADGYDSSQFYYWGQGTQVTVSS | low polyreactivity |
| QVQLVESGGGLVQAGGSLLLSCAASGTTSLVNAMGSYRQAPGKERELVAAISWSGGSTYYADSVKGRFTISRANAKNTVFLQRNSLKPEDTAVYYCAAESYGYWEYDYWGQGTQVTLSS | high polyreactivity |
| QVQLVESGGGLVQAGGSLRLSCAASGSIFDWNAMGWYRQAPGKERELVAAIRRGGSTYYADSVKGRFTISRDNAKNTVYLQMNSLKPEDTAVYYCATRFYSRYYILDYDYWGQGTQLTVSS | high polyreactivity |
| QVQLVESGGGLVQAGGSLRLSCAASGNIFTFNAMGWYRQAPGKERELVAAIRSGGSTNYADSVKGRFTISRDNAKNTVYLQMNSLIPEDTAVYYCAAKRYVQGYVYRFGYWGQGTQVTVSS | high polyreactivity |
| QVQLVESGVGLVQAGGSLRLSCSASGSTFFGNGMGWYRQAPGKERELVAAISGGGSTHYADSVKGRFTISRDNAKNTVYLQMNSLKPEDPAVYYCSPSRDTVGRGPIQRDYWGQGTQVTVSS | low polyreactivity |
| QVQLVESGGGLVQAGGSLRLSCAASGFIFSGYAMGWYRQAPGKERELVAAITRSGSRTYYADSVKGRFTISRDNAKNTVYLQMNSLKPEDTAVYYCAKDKPKYGISTMDYWGQGTQVTVSS | high polyreactivity |
| QVQLVESGGGLVQAGGSLRLSCAASGSTVHYMGWYRPAPGKERELVAGISWSGGSTYYADSVKGRFTISRDNAKNTVYLQMTSLKPEDTAVYYCAADIKIRLYTTGDYWGQGTQVTVSS | low polyreactivity |
| QVQLVESGGGLVQAGGSLRLSCAASGRIFKTYAMGWYRQAPGKEREVVAAITAAGGRTYYADSVKGRFTISRDNAKNTVYLQMNSLKPEDTAVYYCAADSGNDYDYWGQGTQVTVSS | low polyreactivity |
| QVQLVESGGGLVQAGGSLRLSCAASGSIRSYAMGWYRQAPGKERELVAAITRSGGSTYYADSVKGLFTISRDNAKNTVYLQMNSLKPEDTAVYYCAARYTYSYPLFGSWGQGTQVTVSS | high polyreactivity |

| Sequence | polyreactivity (PSR sort gate) |
| --- | --- |
| QVQLVESGGGLVQAGGSLRLSCAASGLIFRRYAMGWYRQAPGKERELVAAITSSGGSTYYADSVKGRFTISRDNAKNTVYLQMNSLKPEDTAVYYCNAYYTGRSAPDSWGQGTQVTVSS | high polyreactivity |
| QVQIVESGGGLVQAGGSLRLSCAASGSIFDGNAMGWYRQAPGKERELVAAITWRGTRTYYADSVKGRFTISRDNAKNTVYLQMNSLKPEDTAVYYCAATSYSTYILGGTRRYDYWGQGTLVTVSS | high polyreactivity |
| QVQLVESGGGLVQAGGSLRLSCAASGITFGVYAMGWYRQAPGKERELVAAISWSVGSTYYADSVKGRFTISRDNAKNTVYLQMNSLKPEDTAVYYCAAYYGVGFDYWGQGTQVTVSS | high polyreactivity |
| QVQLVESGGGLVQAGGSLRLSCAASGSTFNGYAMGWYRQAPGKERELVAAISKRGGSTYYADSVKGRFTISRDNAKNTVYLQMNSLKPEETAVYYCAARVGRTYTVVWWSHYNYWGQGTQVTVSS | high polyreactivity |
| QVQLVESGGGLVQAGGSLRLSCAASGLTFYTNAMGSYRQAPGKERELLAAITSSGGRTYYADSVKGRFTISRDNAKYTVYLQMNSLKPEDTAVYYCAADARRPRIPEMYYWGLGTQVTVSS | high polyreactivity |
| QVQLVESGGGLVQAGGSLRLSCAASGRTFGYNAMGWYRQAPGKERELVATITWNGGRTYYADSVKGRFTISRDNAKNTVYLQMNSLKPEDTAVYYCAKGYPIIGRHGHWGQGTQVTVSS | high polyreactivity |
| QVQLQESGGGPVLAGGRLRLSCAASGTIFVRLDMGWYRQAPGKEREFVATIGSGSSTYYADSVKGSFTISRDNVKNTVFLQMNTLIPEDTAVYYCAVSAAEQSRHYYWDQGTQVTVSS | low polyreactivity |
| QVQLVESGGGLVQAGGSLRLSCAASGSTFPGYAMGWYRQAPGKERELVAAGGSTYYADSVKGRFTISRDNAKNTVYLEMNCLKPEETAVYYCAATWGSVQKGTYYYWGQGTQVTVSS | low polyreactivity |
| QVQLVESGGGLVQAGGSLRLSCAASGSTFAPNTMGWYRQAPGKERELVARITTSDGSTTYADSVKGRFTISRDYAKNTVFFQMNILNPEDTAVYYCARDNTFCTWPSSLYDYWGQGTQVTVSS | low polyreactivity |
| QVQLVESGGGLVQAGGSLRLSCAASGFISHYYAMGWYRQAPGKERELVAAIRISGDRTYYADSVKGRFTISRDNAKNTVYLQMNSLKPEDTAVYYCNAVWEYYGKSDYWGQGTQVTVSS | low polyreactivity |
| QDQLVESGGGLVQAGGSLRLSCAAYGRIFRANVMGWYRQAPGKERELVAAINWSGGSTYYADSVKGRFTISRDIAKNTVYLQMNSLKPEDTAVYYCAAAYKWFGEGRFYYWGQGTQVTVSS | high polyreactivity |
| QVQLVESGGGLVQAGGSLRLSCAASGSTFAIYPMGWYRQAPGKETALVAAITRSGGNTYYADSVKGRFTISRDNAKNTVYLQMNSLKPEDTAVYYCNAETYYWSAYAQYDYWGQGTQVTVSS | high polyreactivity |
| QVQLVESGGGLVQAGGSLRLSCAASGFTFKYNAMGWNRQAPGKERELVASISSGSTNYADSVKGRFTISRDNAKNTVYLQMNSLKPEDTAVYYCAASVSRGKRVRYGYLFKMDYWGQGTLVTVSS | low polyreactivity |
| QVQLVESGGGLVQAGGSLRLSCAASGNIFGHYAMGWYRQAPGKERELVAAISSRGGRTYYADSVKGRFTISRDNAKNTVYLQMNSLKPEDTAVYYCAHKTRQKFGYWGQGTQVTVSS | high polyreactivity |
| QFQLVESGGGLVQAGGSLRLSCAASGRTLYGYAMGLYRQAPGKERELVAAISGSGTITYYADSVKGRFTISRDNAKNTVYLQMNSLKPEDTAVYYCNKRRAGQSRRVDSWGQGTQVTVSS | high polyreactivity |
| QVQLVESGGGLVQAGGSLRLSCAASGFTFSYYGMVWYRQAPWKERELVAGISRGGSTYYADSVKGRFTISRDNAKNTVYLQMNSLKPEDTAVYYCAAAERLRHGLKFDYWGQGTQVTVSS | high polyreactivity |
| QVQLVESGGGLVQAGGSLRLSCAASGRPFSGYAMGWYRQAPGKERELVAAITSSGSSTYYADSVKGRFTISRDNAKNTVYLQMNSLKPEDTAVFYCAATPQAHSERYYYQRKYDYWGQGTQVTVSS | low polyreactivity |
| QVQLVESGGGLVQAGGSLRLSCAASGLIFIKYTMGWYRQAPGKERELVAVISGSGGSTYYADSVKGRFTISRDNAKNTVYLQMNSLKPEDTAVYYCAARSYALGYGGGYWGQGTQVTVSS | high polyreactivity |
| QVQLVESGGGLVQAGGSLRLSCAASGSIFGGYAMGWYRQAPGKERELVAAISRTGGRTYYADSVKGRFTISRDNAKNTVYLQMNSLKPEDTAVYYCAARVVHQSRYSYEYWGQGTQVTVSS | high polyreactivity |
| QVQLVESGGGLVQAGGSLRLSSAASGITFNLNDMGWSRQAPGKERELVAAITSGGNTSYADSVKGRFTISRDNAKNTVYLQMNSLKPEDTAVYYCPTEDFRTDTGMYYWGQGTQVTVSS | low polyreactivity |
| QVQLVESVGGLVQAGGSLRLSCAASGIIFVGYAMGWYRPAPGKERELVSAIDLSGDSTYYADSVKGRFTISRDNAKNTVYLQMNSLKPEDTAVYYCAAGYWHRVNGDYDYWGQGTQVTVSS | high polyreactivity |

Reference: the nanobody polyreactivity screen of Harvey et al. (2022)
